Measured values published in patent US20250276073A1 (Bicycle, published 2025).
Starred links: 1 amine or outer side, 2 acyl side, 3 side chain; linkers in the order of their positions; H or OH if unused. Positions of bridges follow the written chain, without caps; N, C: chain ends. Non-standard residues stand in square brackets, D forms with d. TATB = O=C(C[*:1])N1CN(C(=O)C[*:2])CN(C(=O)C[*:3])C1; Phe(4-CONH2) = NC(=O)c1ccc(C[C@H](N)C(=O)O)cc1; Phe(4-COOH) = N[C@@H](Cc1ccc(C(=O)O)cc1)C(=O)O; Val(3-OH) = CC(C)(O)[C@H](N)C(=O)O; Hyp = O=C(O)[C@@H]1C[C@@H](O)CN1; Tle = CC(C)(C)[C@H](N)C(=O)O

B1: BCY23185 (peptide)
peptide: CPXDAXLGCXSYCEPW
modifications: CP[HyP]DA[DOPA]LGC[tBuGly]SYCEPW: HyP at 3, DOPA at 6, tBuGly at 10; N-terminal acetyl; C-terminal CONH2; Cys 1, 9, 13 bonded to TATB scaffold
notes: Bicyclic peptide
B2: BCY23201 (peptide)
peptide: CPXDAYLGCXSXCEPW
modifications: CP[HyP]DAYLGC[tBuGly]S[pCaPhe]CEPW: HyP at 3, tBuGly at 10, pCaPhe at 12; N-terminal acetyl; C-terminal CONH2; Cys 1, 9, 13 bonded to TATB scaffold
notes: Bicyclic peptide
B3: BCY23186 (peptide)
peptide: Ac-CP[Hyp]DA[Phe(4-CONH2)]LGC[Tle]SYCEPW-NH2
modifications: linker 1-9-13 via TATB
SMILES: CC(=O)N[C@H]1CSCC(=O)N2CN3CN(C2)C(=O)CSC[C@@H](C(=O)N[C@@H](CCC(=O)O)C(=O)N2CCC[C@H]2C(=O)N[C@@H](Cc2c[nH]c4ccccc24)C(N)=O)NC(=O)[C@H](Cc2ccc(O)cc2)NC(=O)[C@H](CO)NC(=O)[C@H](C(C)(C)C)NC(=O)[C@H](CSCC3=O)NC(=O)CNC(=O)[C@H](CC(C)C)NC(=O)[C@H](Cc2ccc(C(N)=O)cc2)NC(=O)[C@H](C)NC(=O)[C@H](CC(=O)O)NC(=O)[C@@H]2C[C@@H](O)CN2C(=O)[C@@H]2CCCN2C1=O
notes: Bicyclic peptide
B4: BCY23200 (peptide)
peptide: CPXDAYLGCXSXCEPW
modifications: CP[HyP]DAYLGC[tBuGly]S[DOPA]CEPW: HyP at 3, tBuGly at 10, DOPA at 12; N-terminal acetyl; C-terminal CONH2; Cys 1, 9, 13 bonded to TATB scaffold
notes: Bicyclic peptide
B5: BCY23187 (peptide)
peptide: Ac-CP[Hyp]DA[Phe(4-COOH)]LGC[Tle]SYCEPW-NH2
modifications: linker 1-9-13 via TATB
SMILES: CC(=O)N[C@H]1CSCC(=O)N2CN3CN(C2)C(=O)CSC[C@@H](C(=O)N[C@@H](CCC(=O)O)C(=O)N2CCC[C@H]2C(=O)N[C@@H](Cc2c[nH]c4ccccc24)C(N)=O)NC(=O)[C@H](Cc2ccc(O)cc2)NC(=O)[C@H](CO)NC(=O)[C@H](C(C)(C)C)NC(=O)[C@H](CSCC3=O)NC(=O)CNC(=O)[C@H](CC(C)C)NC(=O)[C@H](Cc2ccc(C(=O)O)cc2)NC(=O)[C@H](C)NC(=O)[C@H](CC(=O)O)NC(=O)[C@@H]2C[C@@H](O)CN2C(=O)[C@@H]2CCCN2C1=O
notes: Bicyclic peptide
B6: BCY23188 (peptide)
peptide: CPXDAXLGCXSYCEPW
modifications: CP[HyP]DA[hTyr]LGC[tBuGly]SYCEPW: HyP at 3, hTyr at 6, tBuGly at 10; N-terminal acetyl; C-terminal CONH2; Cys 1, 9, 13 bonded to TATB scaffold
notes: Bicyclic peptide
B7: BCY23515 (peptide)
peptide: Ac-CP[Hyp]DAYLGC[Val(3-OH)]SYCEPW-NH2
modifications: linker 1-9-13 via TATB
SMILES: CC(=O)N[C@H]1CSCC(=O)N2CN3CN(C2)C(=O)CSC[C@@H](C(=O)N[C@@H](CCC(=O)O)C(=O)N2CCC[C@H]2C(=O)N[C@@H](Cc2c[nH]c4ccccc24)C(N)=O)NC(=O)[C@H](Cc2ccc(O)cc2)NC(=O)[C@H](CO)NC(=O)[C@H](C(C)(C)O)NC(=O)[C@H](CSCC3=O)NC(=O)CNC(=O)[C@H](CC(C)C)NC(=O)[C@H](Cc2ccc(O)cc2)NC(=O)[C@H](C)NC(=O)[C@H](CC(=O)O)NC(=O)[C@@H]2C[C@@H](O)CN2C(=O)[C@@H]2CCCN2C1=O
notes: Bicyclic peptide

Molecular target: T1, Recombinant human His-tagged TfR1 (a.a. 89-760) (ACRO Biosystems, CD1-H5243) (human, UniProt P02786 89-760)
T1 construct: range 89-760; Bought protein; Captured and amine-coupled on an NTA chip; also called human TfR1; transferrin receptor 1; not shown: His tag (printed 'Hiss-tagged')
T1 sequence (P02786 89-760 limits assumed): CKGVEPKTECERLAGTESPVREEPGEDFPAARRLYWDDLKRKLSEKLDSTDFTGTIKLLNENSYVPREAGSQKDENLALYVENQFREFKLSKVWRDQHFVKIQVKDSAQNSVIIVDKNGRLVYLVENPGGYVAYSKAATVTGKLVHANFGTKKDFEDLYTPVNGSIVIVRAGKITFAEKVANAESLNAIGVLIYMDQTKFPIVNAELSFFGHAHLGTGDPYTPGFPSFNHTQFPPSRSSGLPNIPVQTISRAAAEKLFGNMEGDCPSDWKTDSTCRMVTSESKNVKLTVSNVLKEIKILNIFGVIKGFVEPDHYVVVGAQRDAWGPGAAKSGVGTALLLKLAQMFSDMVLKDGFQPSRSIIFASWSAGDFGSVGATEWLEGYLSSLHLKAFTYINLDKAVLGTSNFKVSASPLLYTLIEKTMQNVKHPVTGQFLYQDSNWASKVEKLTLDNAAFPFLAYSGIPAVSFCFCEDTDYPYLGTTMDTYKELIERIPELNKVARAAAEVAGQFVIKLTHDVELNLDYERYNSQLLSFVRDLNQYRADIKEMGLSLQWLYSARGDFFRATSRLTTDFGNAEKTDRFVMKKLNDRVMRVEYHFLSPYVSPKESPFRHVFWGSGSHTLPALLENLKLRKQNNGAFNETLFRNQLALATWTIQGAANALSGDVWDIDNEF
Test: SPR (Biacore), TfR1 captured/coupled on NTA chip, peptide as analyte

Binder | Kd
B1 | 12 nM
B2 | 17 nM
B3 | 27 nM
B4 | 9.5 nM
B5 | 38 nM
B6 | 109 nM
B7 | 85 nM
